In article PMC10786891, “Massively parallel profiling of RNA-targeting CRISPR-Cas13d”:

T1: EsCas13d, nuclease-dead (Eubacterium siraeum, UniProt B0MS50, R295A;H300A;R849A;H854A)
T1 sequence: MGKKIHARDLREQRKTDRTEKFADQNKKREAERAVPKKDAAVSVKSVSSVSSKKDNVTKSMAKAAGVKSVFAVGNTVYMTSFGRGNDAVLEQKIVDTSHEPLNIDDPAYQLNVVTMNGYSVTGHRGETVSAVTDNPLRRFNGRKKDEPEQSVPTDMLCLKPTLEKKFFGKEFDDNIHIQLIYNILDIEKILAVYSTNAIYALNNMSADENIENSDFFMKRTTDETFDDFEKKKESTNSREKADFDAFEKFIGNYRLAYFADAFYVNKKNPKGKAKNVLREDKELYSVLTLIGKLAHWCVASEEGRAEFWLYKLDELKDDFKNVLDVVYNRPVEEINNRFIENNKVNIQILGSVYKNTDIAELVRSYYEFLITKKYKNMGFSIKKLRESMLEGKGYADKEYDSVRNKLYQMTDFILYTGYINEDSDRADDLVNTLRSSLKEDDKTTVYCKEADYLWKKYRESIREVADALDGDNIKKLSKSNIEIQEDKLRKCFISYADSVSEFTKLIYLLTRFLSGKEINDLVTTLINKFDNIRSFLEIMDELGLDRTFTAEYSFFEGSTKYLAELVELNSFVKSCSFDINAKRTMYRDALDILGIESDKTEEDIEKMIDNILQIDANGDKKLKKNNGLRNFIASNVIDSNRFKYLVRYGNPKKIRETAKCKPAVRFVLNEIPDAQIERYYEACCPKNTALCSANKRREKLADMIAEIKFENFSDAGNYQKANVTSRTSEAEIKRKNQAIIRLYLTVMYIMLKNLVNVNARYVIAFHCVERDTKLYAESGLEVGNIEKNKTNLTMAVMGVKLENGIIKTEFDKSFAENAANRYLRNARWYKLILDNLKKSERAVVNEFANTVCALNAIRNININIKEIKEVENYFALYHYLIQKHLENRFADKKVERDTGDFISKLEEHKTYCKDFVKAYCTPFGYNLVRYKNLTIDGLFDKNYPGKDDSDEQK

B1: target 2 MT 5'PFS UCA 3'PFS ACA (mixed)
RNA 1: CACCCGUGCAAAAUUGCAGGGGUCUAAAACCUUCUCCAAAUUGUUUCAUCCU
RNA 2: GGGAAUGGAUCCACAUCUACGAAUUCUCAAGGAUGAAACAAUUUGGAGAAGACAAGAUCGGAAGAGCACACGU
B2: target 2 MT 5'PFS CGC 3'PFS UGC (mixed)
RNA 1: CACCCGUGCAAAAUUGCAGGGGUCUAAAACCUUCUCCAAAUUGUUUCAUCCU
RNA 2: GGGAAUGGAUCCACAUCUACGAAUUCCGCAGGAUGAAACAAUUUGGAGAAGUGCAGAUCGGAAGAGCACACGU
B3: target 2 MT 5'PFS UAG 3'PFS CAA (mixed)
RNA 1: CACCCGUGCAAAAUUGCAGGGGUCUAAAACCUUCUCCAAAUUGUUUCAUCCU
RNA 2: GGGAAUGGAUCCACAUCUACGAAUUCUAGAGGAUGAAACAAUUUGGAGAAGCAAAGAUCGGAAGAGCACACGU
B4: target 2 MT 5'PFS GCG 3'PFS CUA (mixed)
RNA 1: CACCCGUGCAAAAUUGCAGGGGUCUAAAACCUUCUCCAAAUUGUUUCAUCCU
RNA 2: GGGAAUGGAUCCACAUCUACGAAUUCGCGAGGAUGAAACAAUUUGGAGAAGCUAAGAUCGGAAGAGCACACGU
B5: target 2 MT 5'PFS UCA 3'PFS ACC (mixed)
RNA 1: CACCCGUGCAAAAUUGCAGGGGUCUAAAACCUUCUCCAAAUUGUUUCAUCCU
RNA 2: GGGAAUGGAUCCACAUCUACGAAUUCUCAAGGAUGAAACAAUUUGGAGAAGACCAGAUCGGAAGAGCACACGU
B6: target 2 MT 5'PFS UCU 3'PFS AAA (mixed)
RNA 1: CACCCGUGCAAAAUUGCAGGGGUCUAAAACCUUCUCCAAAUUGUUUCAUCCU
RNA 2: GGGAAUGGAUCCACAUCUACGAAUUCUCUAGGAUGAAACAAUUUGGAGAAGAAAAGAUCGGAAGAGCACACGU
B7: target 2 MT 5'PFS CUU 3'PFS CUC (mixed)
RNA 1: CACCCGUGCAAAAUUGCAGGGGUCUAAAACCUUCUCCAAAUUGUUUCAUCCU
RNA 2: GGGAAUGGAUCCACAUCUACGAAUUCCUUAGGAUGAAACAAUUUGGAGAAGCUCAGAUCGGAAGAGCACACGU
B8: target 2 MT 5'PFS AAC 3'PFS UUU (mixed)
RNA 1: CACCCGUGCAAAAUUGCAGGGGUCUAAAACCUUCUCCAAAUUGUUUCAUCCU
RNA 2: GGGAAUGGAUCCACAUCUACGAAUUCAACAGGAUGAAACAAUUUGGAGAAGUUUAGAUCGGAAGAGCACACGU
B9: target 2 MT 5'PFS UCU 3'PFS AAG (mixed)
RNA 1: CACCCGUGCAAAAUUGCAGGGGUCUAAAACCUUCUCCAAAUUGUUUCAUCCU
RNA 2: GGGAAUGGAUCCACAUCUACGAAUUCUCUAGGAUGAAACAAUUUGGAGAAGAAGAGAUCGGAAGAGCACACGU
B10: target 2 MT 5'PFS UAG 3'PFS CAG (mixed)
RNA 1: CACCCGUGCAAAAUUGCAGGGGUCUAAAACCUUCUCCAAAUUGUUUCAUCCU
RNA 2: GGGAAUGGAUCCACAUCUACGAAUUCUAGAGGAUGAAACAAUUUGGAGAAGCAGAGAUCGGAAGAGCACACGU
B11: target 2 MT 5'PFS CGG 3'PFS AAU (mixed)
RNA 1: CACCCGUGCAAAAUUGCAGGGGUCUAAAACCUUCUCCAAAUUGUUUCAUCCU
RNA 2: GGGAAUGGAUCCACAUCUACGAAUUCCGGAGGAUGAAACAAUUUGGAGAAGAAUAGAUCGGAAGAGCACACGU
B12: target 2 MT 5'PFS CAC 3'PFS UUU (mixed)
RNA 1: CACCCGUGCAAAAUUGCAGGGGUCUAAAACCUUCUCCAAAUUGUUUCAUCCU
RNA 2: GGGAAUGGAUCCACAUCUACGAAUUCCACAGGAUGAAACAAUUUGGAGAAGUUUAGAUCGGAAGAGCACACGU
B13: target 2 MT 5'PFS UCU 3'PFS AAC (mixed)
RNA 1: CACCCGUGCAAAAUUGCAGGGGUCUAAAACCUUCUCCAAAUUGUUUCAUCCU
RNA 2: GGGAAUGGAUCCACAUCUACGAAUUCUCUAGGAUGAAACAAUUUGGAGAAGAACAGAUCGGAAGAGCACACGU
B14: target 2 MT 5'PFS AUU 3'PFS CAG (mixed)
RNA 1: CACCCGUGCAAAAUUGCAGGGGUCUAAAACCUUCUCCAAAUUGUUUCAUCCU
RNA 2: GGGAAUGGAUCCACAUCUACGAAUUCAUUAGGAUGAAACAAUUUGGAGAAGCAGAGAUCGGAAGAGCACACGU
B15: target 2 MT 5'PFS CUU 3'PFS CUG (mixed)
RNA 1: CACCCGUGCAAAAUUGCAGGGGUCUAAAACCUUCUCCAAAUUGUUUCAUCCU
RNA 2: GGGAAUGGAUCCACAUCUACGAAUUCCUUAGGAUGAAACAAUUUGGAGAAGCUGAGAUCGGAAGAGCACACGU
B16: target 2 MT 5'PFS AUU 3'PFS UAC (mixed)
RNA 1: CACCCGUGCAAAAUUGCAGGGGUCUAAAACCUUCUCCAAAUUGUUUCAUCCU
RNA 2: GGGAAUGGAUCCACAUCUACGAAUUCAUUAGGAUGAAACAAUUUGGAGAAGUACAGAUCGGAAGAGCACACGU
B17: target 2 MT 5'PFS UCU 3'PFS AAU (mixed)
RNA 1: CACCCGUGCAAAAUUGCAGGGGUCUAAAACCUUCUCCAAAUUGUUUCAUCCU
RNA 2: GGGAAUGGAUCCACAUCUACGAAUUCUCUAGGAUGAAACAAUUUGGAGAAGAAUAGAUCGGAAGAGCACACGU
B18: target 2 MT 5'PFS CGG 3'PFS AAA (mixed)
RNA 1: CACCCGUGCAAAAUUGCAGGGGUCUAAAACCUUCUCCAAAUUGUUUCAUCCU
RNA 2: GGGAAUGGAUCCACAUCUACGAAUUCCGGAGGAUGAAACAAUUUGGAGAAGAAAAGAUCGGAAGAGCACACGU
B19: target 2 MT 5'PFS CGG 3'PFS AAC (mixed)
RNA 1: CACCCGUGCAAAAUUGCAGGGGUCUAAAACCUUCUCCAAAUUGUUUCAUCCU
RNA 2: GGGAAUGGAUCCACAUCUACGAAUUCCGGAGGAUGAAACAAUUUGGAGAAGAACAGAUCGGAAGAGCACACGU
B20: target 2 MT 5'PFS UUU 3'PFS CGC (mixed)
RNA 1: CACCCGUGCAAAAUUGCAGGGGUCUAAAACCUUCUCCAAAUUGUUUCAUCCU
RNA 2: GGGAAUGGAUCCACAUCUACGAAUUCUUUAGGAUGAAACAAUUUGGAGAAGCGCAGAUCGGAAGAGCACACGU
B21: target 2 MT 5'PFS CUU 3'PFS CUA (mixed)
RNA 1: CACCCGUGCAAAAUUGCAGGGGUCUAAAACCUUCUCCAAAUUGUUUCAUCCU
RNA 2: GGGAAUGGAUCCACAUCUACGAAUUCCUUAGGAUGAAACAAUUUGGAGAAGCUAAGAUCGGAAGAGCACACGU
B22: target 2 MT 5'PFS UAG 3'PFS CAU (mixed)
RNA 1: CACCCGUGCAAAAUUGCAGGGGUCUAAAACCUUCUCCAAAUUGUUUCAUCCU
RNA 2: GGGAAUGGAUCCACAUCUACGAAUUCUAGAGGAUGAAACAAUUUGGAGAAGCAUAGAUCGGAAGAGCACACGU
B23: target 2 MT 5'PFS UUU 3'PFS CGA (mixed)
RNA 1: CACCCGUGCAAAAUUGCAGGGGUCUAAAACCUUCUCCAAAUUGUUUCAUCCU
RNA 2: GGGAAUGGAUCCACAUCUACGAAUUCUUUAGGAUGAAACAAUUUGGAGAAGCGAAGAUCGGAAGAGCACACGU
B24: target 2 MT 5'PFS CGG 3'PFS AAG (mixed)
RNA 1: CACCCGUGCAAAAUUGCAGGGGUCUAAAACCUUCUCCAAAUUGUUUCAUCCU
RNA 2: GGGAAUGGAUCCACAUCUACGAAUUCCGGAGGAUGAAACAAUUUGGAGAAGAAGAGAUCGGAAGAGCACACGU
B25: target 2 MT 5'PFS AAC 3'PFS UUA (mixed)
RNA 1: CACCCGUGCAAAAUUGCAGGGGUCUAAAACCUUCUCCAAAUUGUUUCAUCCU
RNA 2: GGGAAUGGAUCCACAUCUACGAAUUCAACAGGAUGAAACAAUUUGGAGAAGUUAAGAUCGGAAGAGCACACGU
B26: target 2 MT 5'PFS UCA 3'PFS ACU (mixed)
RNA 1: CACCCGUGCAAAAUUGCAGGGGUCUAAAACCUUCUCCAAAUUGUUUCAUCCU
RNA 2: GGGAAUGGAUCCACAUCUACGAAUUCUCAAGGAUGAAACAAUUUGGAGAAGACUAGAUCGGAAGAGCACACGU
B27: target 1 complement block 6-8 (mixed)
RNA 1: CACCCGUGCAAAAAUGCAGGGGUCUAAAACUGAGCGGAUAACCUCUCUAUGG
RNA 2: GGGAAUGGAUCCACAUCUACGAAUUCGUACCAUAGAGAGGUUAAGGGCUCACCGAGAUCGGAAGAGCACACGU
B28: target 1 insU 3' of 21,insG 3' of 14 (mixed)
RNA 1: CACCCGUGCAAAAAUGCAGGGGUCUAAAACUGAGCGGAUAACCUCUCUAUGG
RNA 2: GGGAAUGGAUCCACAUCUACGAAUUCGUACCUAUAGAGAGGGUUAUCCGCUCACCGAGAUCGGAAGAGCACACGU

Each binder was assayed against T1, EsCas13d, nuclease-dead (assay: crRNA (strand 1, pre-loaded); Mg2+; 40 mM Tris-HCl pH 7.5, 150 mM NaCl, 6 mM MgCl2, 1 mM DTT, 0.1% Tween-20, 0.2 mg/ml BSA; 25 C; 10 min per concentration, then washed). Conditions: tags: His6-TwinStrep-SUMO cleaved; N-terminal SNAP kept (SNAP-Surface 488); label: 3' end held by stalled T7 RNA polymerase.

**Q.** How did the Kd turn out when B1 was run?
**A.** 3.6 ± 0.5 nM

**Q.** How did the Kd turn out when B2 was run?
**A.** 6 ± 0.9 nM

**Q.** B3 was tested. Which Kd did it give?
**A.** 1.92 ± 0.26 nM

**Q.** Which Kd does the source give for B4 here?
**A.** 14.3 ± 2.7 nM

**Q.** Which Kd does the source give for B5 here?
**A.** 13.6 ± 3.1 nM

**Q.** How did the Kd turn out when B6 was run?
**A.** 20 ± 8 nM

**Q.** How did the Kd turn out when B7 was run?
**A.** 5.6 ± 0.5 nM

**Q.** Which Kd does the source give for B8 here?
**A.** 7.1 ± 1.3 nM

**Q.** How did the Kd turn out when B9 was run?
**A.** 20 ± 6 nM

**Q.** For B10, which Kd is on record?
**A.** 2.68 ± 0.21 nM

**Q.** With B11 as the binder, how does the Kd read?
**A.** 4.8 ± 0.7 nM

**Q.** With B12 as the binder, how does the Kd read?
**A.** 5.2 ± 0.8 nM

**Q.** Which Kd does the source give for B13 here?
**A.** 9.5 ± 1.7 nM

**Q.** With B14 as the binder, how does the Kd read?
**A.** 6.9 ± 1.1 nM

**Q.** For B15, which Kd is on record?
**A.** 4.2 ± 0.8 nM

**Q.** With B16 as the binder, how does the Kd read?
**A.** 11.9 ± 2.2 nM

**Q.** How did the Kd turn out when B17 was run?
**A.** 26 ± 10 nM

**Q.** For B18, which Kd is on record?
**A.** 5.7 ± 0.9 nM

**Q.** Which Kd does the source give for B19 here?
**A.** 4.2 ± 0.4 nM

**Q.** Which Kd does the source give for B20 here?
**A.** 6.4 ± 0.5 nM

**Q.** With B21 as the binder, how does the Kd read?
**A.** 10.8 ± 3.5 nM

**Q.** Which Kd does the source give for B22 here?
**A.** 3.7 ± 0.5 nM

**Q.** For B23, which Kd is on record?
**A.** 8 ± 0.9 nM

**Q.** With B24 as the binder, how does the Kd read?
**A.** 4.4 ± 0.5 nM

**Q.** How did the Kd turn out when B25 was run?
**A.** 7.4 ± 1.7 nM

**Q.** How did the Kd turn out when B26 was run?
**A.** 7 ± 1.4 nM

**Q.** With B27 as the binder, how does the Kd read?
**A.** 8.69 ± 0.24 nM

**Q.** Which Kd does the source give for B28 here?
**A.** 39 ± 4 nM
